Here are results for one molecule from patent publication US20050287664A1 (published 2005).

The test addresses T1, full length rat SD (Shen-Dan) protein expressed from pSDf in HEK293T cells (rat, UniProt Q2VWP9 24-1193).
T1 construct: Full-length rat SD amplified from E10.5 rat cDNA and ligated into pEF1/Myc-His (pSDf); also called SD-expressing cells
T1 sequence: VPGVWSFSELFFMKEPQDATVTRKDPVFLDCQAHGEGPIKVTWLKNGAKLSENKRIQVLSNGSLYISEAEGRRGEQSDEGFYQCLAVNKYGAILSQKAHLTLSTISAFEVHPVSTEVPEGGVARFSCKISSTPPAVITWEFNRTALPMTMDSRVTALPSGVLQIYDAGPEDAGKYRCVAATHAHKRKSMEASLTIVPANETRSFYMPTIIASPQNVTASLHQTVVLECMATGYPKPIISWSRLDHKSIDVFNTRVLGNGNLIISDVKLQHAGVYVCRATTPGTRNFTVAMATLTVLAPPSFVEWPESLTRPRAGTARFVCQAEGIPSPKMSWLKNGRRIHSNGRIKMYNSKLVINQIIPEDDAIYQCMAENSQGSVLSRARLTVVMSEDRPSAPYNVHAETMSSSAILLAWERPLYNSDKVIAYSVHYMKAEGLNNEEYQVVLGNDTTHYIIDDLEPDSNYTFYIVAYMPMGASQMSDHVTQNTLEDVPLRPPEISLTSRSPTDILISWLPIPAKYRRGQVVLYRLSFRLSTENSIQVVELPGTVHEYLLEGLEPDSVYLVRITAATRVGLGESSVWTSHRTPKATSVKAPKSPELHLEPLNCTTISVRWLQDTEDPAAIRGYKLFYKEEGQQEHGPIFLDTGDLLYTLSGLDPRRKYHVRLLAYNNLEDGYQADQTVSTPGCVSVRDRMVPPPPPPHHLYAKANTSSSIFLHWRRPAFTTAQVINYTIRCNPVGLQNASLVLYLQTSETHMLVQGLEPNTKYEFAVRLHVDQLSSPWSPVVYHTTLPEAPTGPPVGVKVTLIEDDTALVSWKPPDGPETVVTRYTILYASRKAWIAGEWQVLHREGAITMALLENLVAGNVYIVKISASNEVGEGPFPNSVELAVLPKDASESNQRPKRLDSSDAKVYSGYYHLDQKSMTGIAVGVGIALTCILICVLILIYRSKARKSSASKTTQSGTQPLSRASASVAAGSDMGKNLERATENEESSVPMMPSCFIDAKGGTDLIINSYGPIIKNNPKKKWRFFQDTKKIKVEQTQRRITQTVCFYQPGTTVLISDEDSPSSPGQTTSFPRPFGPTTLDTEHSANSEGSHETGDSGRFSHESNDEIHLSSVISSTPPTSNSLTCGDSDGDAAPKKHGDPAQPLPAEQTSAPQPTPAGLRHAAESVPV
Briefly: in situ binding assay, conditioned medium on pSDf-transfected HEK293T cells, immunofluorescence (anti-myc 9E10). The text has this:
HEDJ/ERdj3 binds to the SD extracellular domain. a, Schematic representation of eight HEDJ/ERdj3 clones identified by yeast two-hybrid screening and their interaction with the SD extracellular domain, shown as activity in an X-gal assay. b, Various sd deletion mutants were examined for their ability to interact with C-terminal HEDJ/ERdj3. c, HEK293T cells were transiently transfected with pHEDJ or a control vector. Three days after transfection, conditioned medium (CM) and total cell lysate (TCL) were subjected to Western blotting to detect HEDJ/ERdj3 using anti-myc antibody. d, Quantification of HEDJ/ERdj3 binding to SD-expressing cells. HEK293T cells were transiently transfected with pSDf or control vector. SD expression was detected by W4 antiserum. Binding of HEDJ/ERdj3 on the cells was detected by anti-myc mAb. Cell nuclei were visualized by DAPI. […] Data were normalized relative to fluorescence intensity of the cells transfected with pSDf in the presence of control CM. Results are shown as means±s.e.m., from a total of 50 cells. (*, p<0.001; by student's t-test).
HEK293T cells were transfected with pSDf using FuGENE 6 (Roche). […] The fluorescence signal was quantified using ImageJ software (NIH, Bethesda, Md., USA).

B1: C-terminal His-myc-tagged HEDJ/ERdj3 protein secreted from pHEDJ-transfected HEK293T cells (ligand, mouse, UniProt Q99KV1 23-358, looked up)
chain: GRDFYKILGVPRSASIKDIKKAYRKLALQLHPDRNPDDPQAQEKFQDLGAAYEVLSDSEKRKQYDTYGEEGLKDGHQSSHGDIFSHFFGDFGFMFGGTPRQQDRNIPRGSDIIVDLEVTLEEVYAGNFVEVVRNKPVARQAPGKRKCNCRQEMRTTQLGPGRFQMTQEVVCDECPNVKLVNEERTLEVEIEPGVRDGMEYPFIGEGEPHVDGEPGDLRFRIKVVKHRIFERRGDDLYTNVTVSLVEALVGFEMDITHLDGHKVHISRDKITRPGAKLWKKGEGLPNFDNNNIKGSLIITFDVDFPKEQLTEEAKEGIKQLLKQGPVQKVYNGLQGY
notes: mature; also called secreted HEDJ/ERdj3; not shown: C-terminal His-myc tag from pEF1/Myc-His
Regarding B1, the binding result is listed as “binds”.
